Laboratory results: paper PMC3988316 (Cell, 2013)
No end group written: not given here. cellulose‑PEG membrane = cellulose-PEG membrane solid support to which peptides are linked at the C-terminus as "dots"

Target: N-terminally flag-tagged full-length S. cerevisiae Ubr1 (S. cerevisiae, UniProt P19812 1-1950)
Experiment: peptide or protein array

Sequence of N-terminally flag-tagged full-length S. cerevisiae Ubr1 (P19812 whole entry): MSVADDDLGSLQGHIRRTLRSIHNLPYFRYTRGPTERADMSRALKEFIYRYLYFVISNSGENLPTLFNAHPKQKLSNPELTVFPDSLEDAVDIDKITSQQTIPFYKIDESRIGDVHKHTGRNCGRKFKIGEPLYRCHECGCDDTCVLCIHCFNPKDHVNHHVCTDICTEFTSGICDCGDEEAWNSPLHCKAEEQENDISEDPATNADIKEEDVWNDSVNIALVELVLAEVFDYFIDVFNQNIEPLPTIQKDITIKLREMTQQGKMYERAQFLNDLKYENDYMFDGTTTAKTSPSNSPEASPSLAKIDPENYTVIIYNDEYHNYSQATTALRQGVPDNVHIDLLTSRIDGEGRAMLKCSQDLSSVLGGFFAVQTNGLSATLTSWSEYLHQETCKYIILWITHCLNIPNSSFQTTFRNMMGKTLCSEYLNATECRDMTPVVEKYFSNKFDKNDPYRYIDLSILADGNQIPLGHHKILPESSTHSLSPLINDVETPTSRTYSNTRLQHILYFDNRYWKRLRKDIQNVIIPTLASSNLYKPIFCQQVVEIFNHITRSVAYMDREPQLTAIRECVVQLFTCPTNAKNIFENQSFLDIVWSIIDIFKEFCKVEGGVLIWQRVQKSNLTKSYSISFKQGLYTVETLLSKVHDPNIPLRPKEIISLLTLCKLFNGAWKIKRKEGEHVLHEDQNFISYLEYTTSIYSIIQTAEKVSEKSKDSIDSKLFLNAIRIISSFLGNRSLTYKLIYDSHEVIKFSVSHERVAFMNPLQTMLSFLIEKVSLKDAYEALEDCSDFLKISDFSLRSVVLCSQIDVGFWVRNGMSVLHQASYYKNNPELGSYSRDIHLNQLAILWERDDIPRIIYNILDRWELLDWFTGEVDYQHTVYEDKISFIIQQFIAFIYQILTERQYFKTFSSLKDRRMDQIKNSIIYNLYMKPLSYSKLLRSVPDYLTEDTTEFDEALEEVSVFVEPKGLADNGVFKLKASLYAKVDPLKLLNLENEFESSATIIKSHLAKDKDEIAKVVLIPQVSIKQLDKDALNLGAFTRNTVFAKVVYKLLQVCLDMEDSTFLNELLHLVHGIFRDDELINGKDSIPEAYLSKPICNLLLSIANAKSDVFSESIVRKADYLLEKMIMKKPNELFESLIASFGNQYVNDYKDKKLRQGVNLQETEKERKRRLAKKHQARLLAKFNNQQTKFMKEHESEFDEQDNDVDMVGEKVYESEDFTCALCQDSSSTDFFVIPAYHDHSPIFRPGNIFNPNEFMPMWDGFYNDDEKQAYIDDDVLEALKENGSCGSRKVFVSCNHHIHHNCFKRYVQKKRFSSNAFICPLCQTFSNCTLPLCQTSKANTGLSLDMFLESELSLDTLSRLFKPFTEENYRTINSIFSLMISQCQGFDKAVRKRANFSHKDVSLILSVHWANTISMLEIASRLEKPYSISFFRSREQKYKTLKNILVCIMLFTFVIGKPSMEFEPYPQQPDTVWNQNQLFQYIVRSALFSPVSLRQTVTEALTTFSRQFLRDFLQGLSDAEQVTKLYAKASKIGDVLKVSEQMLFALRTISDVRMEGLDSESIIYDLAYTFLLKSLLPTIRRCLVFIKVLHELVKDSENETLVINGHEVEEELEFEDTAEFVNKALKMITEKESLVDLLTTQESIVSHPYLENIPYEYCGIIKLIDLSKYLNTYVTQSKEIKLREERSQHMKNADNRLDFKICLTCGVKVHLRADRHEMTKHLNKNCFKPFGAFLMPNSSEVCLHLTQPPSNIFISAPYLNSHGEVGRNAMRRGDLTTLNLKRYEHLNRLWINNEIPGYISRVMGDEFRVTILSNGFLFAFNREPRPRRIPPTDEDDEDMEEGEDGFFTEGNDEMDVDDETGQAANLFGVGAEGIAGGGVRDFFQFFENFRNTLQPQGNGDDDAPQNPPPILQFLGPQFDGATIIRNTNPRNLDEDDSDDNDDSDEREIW

Binding result, binds:
MAGSGAWLLP-{cellulose‑PEG membrane} [Met-Ala-e^K(3–10) peptide]
MVGSGAWLLP-{cellulose‑PEG membrane} [Met-Val-e^K(3–10) peptide]
MIGSGAWLLP-{cellulose‑PEG membrane} [Met-Ile-e^K(3–10) peptide]
MFGSGAWLLP-{cellulose‑PEG membrane} [Met-Phe-e^K(3–10) peptide]
MWGSGAWLLP-{cellulose‑PEG membrane} [Met-Trp-e^K(3–10) peptide]
MYGSGAWLLP-{cellulose‑PEG membrane} [Met-Tyr-e^K(3–10) peptide]
